Laboratory results: patent US20230295338A1 (published 2023)

What was measured:
[1] = target: T1, human CEACAM1-Fc fusion protein (UniProt P13688 35-428); test: ELISA
T1 chain: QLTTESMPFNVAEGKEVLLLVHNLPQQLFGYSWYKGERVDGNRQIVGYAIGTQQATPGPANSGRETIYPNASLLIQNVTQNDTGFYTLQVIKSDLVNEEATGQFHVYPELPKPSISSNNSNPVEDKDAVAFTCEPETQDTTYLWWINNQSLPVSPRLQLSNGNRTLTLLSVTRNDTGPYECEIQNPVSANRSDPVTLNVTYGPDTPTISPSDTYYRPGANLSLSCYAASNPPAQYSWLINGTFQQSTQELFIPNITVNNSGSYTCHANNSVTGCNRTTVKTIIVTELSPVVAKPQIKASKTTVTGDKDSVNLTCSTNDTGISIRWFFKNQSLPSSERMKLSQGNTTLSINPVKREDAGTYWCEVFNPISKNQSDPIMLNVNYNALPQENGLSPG

[2] = target: T1, human CEACAM1-Fc fusion protein; test: BLI
CC1-N-Fc = test: ELISA
recHopQ = recHopQ (Helicobacter pylori); test: BLI

B1: CC1/3/5-Sab (antibody, V domains shown)
VH: EVQLQQSGPELVKPGTSVKMSCKASGYTFTTYVMHWVQQKPGQGLDWIGFFNPYNDGTKYNEKFKGKATLTSDKSSSTAYMELSSLTSEDSAVYYCARWAYDGSYAYWGQGTTLTVSS
VL: DIQMTQSSSYLSVFLGGRVTITCKASDHINNWLAWYQQKPGNAPRLLISGATSLETGVPSRFSGSGSGKDYTLSIISLQTEDVATYYCQQYWRTPFTFGSGTKLEIK
Q: What does the source list for B1?
A: IC50 [1]: 0.146 nM; Kd [2]: 54 nM

B2: mAb CC1/3/5-Sab (antibody, V domains shown)
VH: EVQLQQSGPELVKPGTSVKMSCKASGYTFTTYVMHWVQQKPGQGLDWIGFFNPYNDGTKYNEKFKGKATLTSDKSSSTAYMELSSLTSEDSAVYYCARWAYDGSYAYWGQGTTLTVSS
VL: DIQMTQSSSYLSVFLGGRVTITCKASDHINNWLAWYQQKPGNAPRLLISGATSLETGVPSRFSGSGSGKDYTLSIISLQTEDVATYYCQQYWRTPFTFGSGTKLEIK
Q: With B2 as the binder, how does the IC50 (CC1-N-Fc) read?
A: The IC50 was 0.107 nM.

B3: CEACAM1-Fc (Fc fusion)
chain: QLTTESMPFNVAEGKEVLLLVHNLPQQLFGYSWYKGERVDGNRQIVGYAIGTQQATPGPANSGRETIYPNASLLIQNVTQNDTGFYTLQVIKSDLVNEEATGQFHVYPELPKPSISSNNSNPVEDKDAVAFTCEPETQDTTYLWWINNQSLPVSPRLQLSNGNRTLTLLSVTRNDTGPYECEIQNPVSANRSDPVTLNVTYGPDTPTISPSDTYYRPGANLSLSCYAASNPPAQYSWLINGTFQQSTQELFIPNITVNNSGSYTCHANNSVTGCNRTTVKTIIVTELSPVVAKPQIKASKTTVTGDKDSVNLTCSTNDTGISIRWFFKNQSLPSSERMKLSQGNTTLSINPVKREDAGTYWCEVFNPISKNQSDPIMLNVNYNALPQENGLSPG
Q: Which Kd (recHopQ) does the source give for B3 here?
A: The Kd was 183 nM.
